Among the data in paper PMC4974474 are stoichiometry N values, retold here.

For experiment [1], the target named is POC3. The experiment can be described thus: SAXS; each POC alone, 50 μM; oligomeric state from the total scattering.
For experiment [2], the target named is POC1+POC2+POC3 assembly. As to the kind of experiment: SAXS; POC1+POC2+POC3 (1:1:1) at 50 μM; beamline B21, Diamond Light Source.
For experiment [3], the target named is POC2. The experiment can be described thus: SAXS; each POC alone, 50 μM; oligomeric state from the total scattering.
The target of experiment [4] is POC1. The experiment is described as above.

POC3 returned a stoichiometry N in experiment [1] of 3.

For POC1+POC2+POC3 assembly (complex), in experiment [2], the stoichiometry N is 2.

POC2: in experiment [3], the stoichiometry N is 3.

For POC1, the stoichiometry N in experiment [4] was found to be 2.
